Results published in patent US20260242448A1 (INSTITUTE OF MICROBIOLOGY CHINESE ACADEMY OF SCIENCES, published 2026).

Key:
[1] = target: T1, S protein of the SARS-CoV-2 prototype strain on pseudo-virus (SARS-CoV-2 prototype strain, UniProt P0DTC2 14-1273); experiment: cell-based or functional assay
[2] = target: T2, RBD of the S protein of the 2019 original strain (2019-nCoV) (SARS-CoV-2 (2019-nCoV original strain), UniProt P0DTC2 319-541); experiment: ELISA on plate-coated RBD (1 µg/mL), HRP anti-human Fc detection, OD450
T2 construct: domain: RBD; also called 2019-nCoV RBD; SARS-CoV-2 RBD

[3] = target: T1, S protein of the SARS-CoV-2 prototype …; experiment: cell-based or functional assay; remark: listed apart in the source

Binder | Neutralization Effects (IC50) against SARS-CoV-2 pseudo-viruses [1] [ng/mL] | EC50 [2] [nM] | Neutralization activity (IC50) against pseudo-virus [3] [ng/mL]
monoclonal antibody L4.65 (antibody, V domains shown, also called monoclonal antibody 65; 65IgG) VH: QITLKESGPTLVKPTQTLTLTCTFSGFSLSTSGVGVAWIRQPPGKALEWLALIYWDNDKRSSPSLNNRLTITKDTSKNQVVLTMTNMDPEDTATYYCAHFFSHYDSSNYYYGSWFDPWGQGTLVTVSS VL: EIVLTQSPGTLSLSPGERATLSCRASQSFDSRYLGWYQQKSGQAPRLLIYGASSRATGIPDRFSGSGSGTDFTLTISRLEPEDFAVYYCQQFGDSPFTFGQGTKLEIKR | 0.709 | 0.0173 | 0.97
monoclonal antibody CoV56 (antibody, V domains shown, also called monoclonal antibody 56; 56IgG) VH: EVQLVESGGGVVQPGGSLRLSCAVSGFTFDDYAMHWVRQAPGKGLDWVSLISGDGSYTYYADSVKGRFTISRDSSKNSLYLQMNSLRTEDTALYYCAKAQTPTLWWLQDAFDIWGQGTMVTVSS VL: not shown | 8380 | 0.0418 | > 2000
